Key:
Type in all cases: cell-based, Yarrowia
olivetolic acid [1] = test: Linkers for GPS1.1-MPT4 fusions, in vivo assay (Example 6); conditions: 1 mM olivetolic acid, 72 h quench; for CBGA / FCBGA: 2% glycerol, strain sCL-SE-0128; for CBGA/FCBGA: product ratio
Description: As described in detail below, plasmids pCL-SE-0380 (MPT4), pCL-SE-0406, pCL-SE-0435, and pCL-SE-0437 were transformed into strain sCL-SE-0128. Four separate colonies per transformation were precultured for 24 h in YNB containing glycerol (2%), casamino acids (0.5%), and MES (100 mM pH 6.5). Pre-culture was used to inoculate assay medium comprised of YNB containing glycerol (2%), casamino acids (0.5%), MES (100 mM pH 6.5), and olivetolic acid (1 mM). Cultures were quenched after 72 h total growth by mixing with equal volume of EtOH. Enzymes produced CBGA and FCBGA. Averages and standard deviations were calculated from replicates.
However, sCL-SE-0128 expresses HMGR and GPS1.1 to increase intracellular GPP levels for prenylation of OA to CBGA. The plasmids that were transformed contain either a gene expressing a prenyl-transferase (pCL-SE-0380 (MPT4)) or a gene expressing a fusion between GPS1.1 and a prenyl-transferase with different linker sequences.
(§1) Overnight YPD (10 g/L yeast extract, 20 g/L peptone, 2% dextrose) cultures were inoculated from glycerol stocks of the appropriate strain and grown at 30° C. with 250 rpm shaking. Once cultures had reached an OD600 of 4-6, cultures were centrifuged at 500×g for 5 min, supernatants were discarded, and cell pellets were resuspended in equal volume of water. Resuspended cells were centrifuged at 500×g for 5 min, supernatants were discarded, and cells were resuspended in a volume (75 μL×OD×Vculture) of transformation cocktail (45% PEG-400, 0.1 M LiAc, 0.1 M DTT, and 25 ug/100 μL SS Salmon Sperm DNA). For each transformation, >1 μg of plasmid DNA was added to 55 μL cells/transformation cocktail and vortexed for 2 s. Transformations were incubated at 39° C. for 1 h with 250 rpm shaking. Transformations were resuspended in 750 μL YPD with 1 M sorbitol and recovered at 30° C. overnight with 250 rpm shaking. The next day, transformations were centrifuged at 500×g for 5 min, supernatants were discarded, and cell pellets were resuspended in 750 YPD. Resuspended transformations were plated on YPD with appropriate selection or YNBD (6.71 g/L yeast nitrogen base+nitrogen, 0.5% casamino acids, 2% dextrose) agar plates and grown at 30° C. for 2 days. Individual colonies were patched onto YPD plates with appropriate selection or YNBD plates and grown at 30° C. overnight. Patches were used to inoculate 0.5 mL YPD with appropriate selection or YNBD precultures in 96 w blocks and grown at 30° C. for 24-48 h with 1000 rpm shaking. For assays, 0.5 mL YPD with appropriate selection or YNBD cultures containing substrate were inoculated with 2 μL from precultures and grown at 30° C. for 2-4 days with 1000 rpm shaking with 2% glucose added every 24 h. Assay cultures were quenched by addition of 0.5 mL ethanol with 0.2% formic acid and 0.5 mg/mL pentyl-benzoic acid. Precipitates were pelleted by centrifuging at 4600×g for 10 min and then 200 μL was transferred to fresh plates, sealed, and analyzed via HPLC.
(§2) All samples were quenched with equal volume of EtOH containing 0.2 mg/mL internal standard (3,5-Diisopropyl-2-hydroxybenzoic acid CAS #2215-21-6) centrifuged, and clarified solutions were analyzed by HPLC-MS
(§3) • Column: 2.1×50 mm COSMOCORE PBr (Nacalai USA, Inc.) • Mobile Phase: A; 0.1% formic acid in water, B; 0.1% formic acid in acetonitrile • Flow: 0.45 mL/min • Temp: % 50 Celsius • Gradient: 20%B at 0 min, 70%B at 2.3 min, 89% B at 4.2 min, 20% B at 4.3 min, 20%B at 6 min

olivetolic acid [2] = test: GPS-APT fusions, OA feed in vivo assay (Example 11)
Description: As described below, plasmids pCL-SE-0406, pCL-SE-0664, pCL-SE-0663, pCL-SE-0662, pCL-SE-0380 (MPT4), pCL-SE-0337.MPT21, pCL-SE-0337.MPT26, and pCL-SE-0337.MPT31 were transformed into strain sCL-SE-0128. Multiple colonies per transformation were precultured for 48 h in YNB containing glucose (2%), casamino acids (0.5%), and MES (100 mM pH 6.5). Pre-culture was used to inoculate assay medium comprised of YNB containing glucose (2%), casamino acids (0.5%), MES (100 mM pH 6.5), and olivetolic acid (2 mM). Cultures were quenched with equal volume of ethanol after 48 h total growth and assayed for CBGA and FCBGA. Averages and standard deviations were calculated from replicates.
Soluble prenyl transferase APT73.77 was fused with GPS1.1 at the N- or C-terminus with different linkers creating the plasmids shown in Table 14. These fusion proteins were expressed and screened as described in Example 8 (olivetolic acid feed)
as §1, §2, §3

olivetolic acid [3] = test: GPS1.1 fusions of MPT21 mutants, OA feed (Example 8, Table 10); conditions: in words; mutagenesis of MPT21, tested as GPS1.1-F11 fusions
Description: as §1, §2, §3

[4] = olivetolic acid feed as in Example 8, 48 h quench, strain sCL-SE-0128

Molecule	CBGA (olivetolic acid [1])	FCBGA (olivetolic acid [1])	CBGA/FCBGA (olivetolic acid [1])	activity towards CBGA formation (olivetolic acid [3])	also measured
GPS1.1-F5-MPT4: fusion protein, SEQ ID NO: 17 (protein, GPS1.1-F5-MPT4, geranyl diphosphate synthase, membrane-bound prenyltransferase fusion protein) MSKAKFESVFPRISEELVQLLRDEGLPQDAVQWFSDSLQYNCVGGKLNRGLSVVDTYQLLTGKKELDDEEYYRLALLGWLIELLQAFWLVSDDIMDESKTRRGQPCWYLKPKVGMIAIWDAFMLESGIYILLKKHFRQEKYYIDLVELFHDISFKTELGQLVDLLTAPEDEVDLNRFSLDKHSFIVRYKTAYYSFYLPVVLAMYVAGITNPKDLQQAMDVLIPLGEYFQVQDDYLDNFGDPEFIGKIGTDIQDNKCSWLVNKALQKATPEQRQILEDNYGVKDKSKELVIKKLYDDMKIEQDYLDYEEEVVGDIKKKIEQVDESRGFKKEVLNAFLAKIYKRQKGGGGSGGGGSGGGGSMSDNSIATKILNFGHTCWKLQRPYVVKGMISIACGLFGRELFNNRHLFSWGLMWKAFFALVPILSFNFFAAIMNQIYDVDIDRINKPDLPLVSGEMSIETAWILSIIVALTGLIVTIKLKSAPLFVFIYIFGIFAGFAYSVPPIRWKQYPFTNFLITISSHVGLAFTSYSATTSALGLPFVWRPAFSFIIAFMTVMGMTIAFAKDISDIEGDAKYGVSTVATKLGARNMTFVVSGVLLLNYLVSISIGIIWPQVFKSNIMILSHAILAFCLIFQTRELALANYASAPSRQFFEFIWLLYYAEYFVYVFI	333 ± 129 µM	49 ± 15 µM	6.8		
GPS1.1-F10-MPT4: fusion protein, SEQ ID NO: 19 (protein, GPS1.1-F10-MPT4, geranyl diphosphate synthase, membrane-bound prenyltransferase fusion protein) MSKAKFESVFPRISEELVQLLRDEGLPQDAVQWFSDSLQYNCVGGKLNRGLSVVDTYQLLTGKKELDDEEYYRLALLGWLIELLQAFWLVSDDIMDESKTRRGQPCWYLKPKVGMIAIWDAFMLESGIYILLKKHFRQEKYYIDLVELFHDISFKTELGQLVDLLTAPEDEVDLNRFSLDKHSFIVRYKTAYYSFYLPVVLAMYVAGITNPKDLQQAMDVLIPLGEYFQVQDDYLDNFGDPEFIGKIGTDIQDNKCSWLVNKALQKATPEQRQILEDNYGVKDKSKELVIKKLYDDMKIEQDYLDYEEEVVGDIKKKIEQVDESRGFKKEVLNAFLAKIYKRQKGGAEAAAKEAAAKAAEAAAKEAAAKAAEAAAKEAAAKAAEAAAKEAAAKAGGMSDNSIATKILNFGHTCWKLQRPYVVKGMISIACGLFGRELFNNRHLFSWGLMWKAFFALVPILSFNFFAAIMNQIYDVDIDRINKPDLPLVSGEMSIETAWILSIIVALTGLIVTIKLKSAPLFVFIYIFGIFAGFAYSVPPIRWKQYPFTNFLITISSHVGLAFTSYSATTSALGLPFVWRPAFSFIIAFMTVMGMTIAFAKDISDIEGDAKYGVSTVATKLGARNMTFVVSGVLLLNYLVSISIGIIWPQVFKSNIMILSHAILAFCLIFQTRELALANYASAPSRQFFEFIWLLYYAEYFVYVFI	350 ± 17 µM	54 ± 1 µM	6.5		
APT73.77-F18-GPS1.1: fusion protein, SEQ ID NO: 66 (protein, APT73.77-F18-GPS1.1, mutant soluble aromatic prenyltransferase, geranyl diphosphate synthase fusion protein) MDEVYAAVEQTSRLLDVPCSPDRFEPVWKAFGDQLPDSHLVFSMAAGEAHRGELDFDFSLRPEGADPYTTALEHGFIEPTDHPVGSVLAEVGKRFAIASYGVEYGVVGGFKKSYAFFPLDDFPPLAQFAEVPSVPPCLAGHVETLTRLGFDDKVSIIGVNYRKNTLNVYLAASAVDTGDKLALLRAFGYPEPDARVRQFIERSFRLYPTFNWDSSAAERICFAVHTQQPGELPAPHDEPTEAFARQVPHVYEGGREFVSGVALAPSGASYYKLAALYQKARRCLDGGGGSLEDPAVWEAGKVVAKGVGTADITATTSNGLIASSEEADNAATSMSKAKFESVFPRISEELVQLLRDEGLPQDAVQWFSDSLQYNCVGGKLNRGLSVVDTYQLLTGKKELDDEEYYRLALLGWLIELLQAFWLVSDDIMDESKTRRGQPCWYLKPKVGMIAIWDAFMLESGIYILLKKHFRQEKYYIDLVELFHDISFKTELGQLVDLLTAPEDEVDLNRFSLDKHSFIVRYKTAYYSFYLPVVLAMYVAGITNPKDLQQAMDVLIPLGEYFQVQDDYLDNFGDPEFIGKIGTDIQDNKCSWLVNKALQKATPEQRQILEDNYGVKDKSKELVIKKLYDDMKIEQDYLDYEEEVVGDIKKKIEQVDESRGFKKEVLNAFLAKIYKRQK					CBGA (olivetolic acid [2]; [4]): 382 ± 26 µM; FCBGA (olivetolic acid [2]; [4]): 149 ± 4 µM; CBGA/FCBG (olivetolic acid [2]; olivetolic acid feed, 48 h quench, product ratio): 2.6
MPT21.9 (protein, MPT21.9 (recombinant membrane-bound prenyltransferase)) MSDNSIATKILNFGHTCWKLQRPYVVKGMISIACGLFGKELLHNTNLISWGLMWKAFFALVPILSFNFFASIMNQIYDVDIDRINKPDLPLVSGEMSIETAWILSIIVALTGLIVTIKLKSAPLFVFIYIFGIFAGFAYSVPPIRWKQNPSTNFLITISSHVGLAFTSYYASRAALGLPFELRPSFTFLLAFMTVMGMTIAFAKDISDIEGDAKYGVSTVATKLGARNMTFVVSGVLLLNYVAAILAGIIWPQAFNSNVMLLSHAILAFCLIFQTRELALANYASAPSRQFFEFIWLLYYAEYFVYVFI				improved activity towards CBGA formation	
MPT21.2 (protein, MPT21.2 (recombinant membrane-bound prenyltransferase)) MSDNSIATKILNFGHTCWKLQRPMVVKGMISIACGLFGKELLHNTNLISWGLMWKAFFALVPILSFNFFAAIMNQIYDVDIDRINKPDLPLVSGEMSIETAWILSIIVALTGLIVTIKLKSAPLFVFIYIFGIFAGFAYSVPPIRWKQNPSTNFLITISSHVGLAFTSYYASRAALGLPFELRPSFTFLLAFMTVMGMTIAFAKDISDIEGDAKYGVSTVATKLGARNMTFVVSGVLLLNYVAAILAGIIWPQAFNSNVMLLSHAILAFCLIFQTRELALANYASAPSRQFFEFIWLLYYAEYFVYVFI					ratio of CBGA/FCBGA (olivetolic acid [3]): improved ratio of CBGA/FCBGA
MPT21.18 (protein, MPT21.18 (recombinant membrane-bound prenyltransferase)) MSDNSIATKILNFGHTCWKLQRPYVVKGMISIACGLFGKELLHNTNLISWGLMWKAFFALVPILSFNFFAAIMNQIYDVDIDRINKPDLPLVSGEMSIETAWILSIIVALTGLIVTIKLKSAPLFVFIYIFGIFAGFAYSVPPIRWKQNPSTNFLITISSHVGLAFTSYYASRAALGLPFELRPSFTFLLAFMTVMGMTIAFAKDISDIEGDAKYGVSTVATKLGARNMTFVVSGVLLLNYVAAILAGIIWPQAFNSNVMLLSHAILAFCLIFQARELALANYASAPSRQFFEFIWLLYYAEYFVYVFI				improved activity towards CBGA formation	

— patent US20240228986A1, “ENGINEERED CELLS, ENZYMES, AND METHODS FOR PRODUCING CANNABINOIDS” (priority 2021, published 2024)
